Paper PMC3154745 (Chembiochem : a European journal of chemical biology, 2011)
Positions count from the first letter of the chain named. Numbers in names are those of the source.

B1: W200A: HP1a-CSD point mutant W200A (protein)
chain: EQDTIPVSGSTGFDRGLEAEKILGASDNNGRLTFLIQFKGVDQAEMVPSSVANEKIPRMVIHFYEERLSAYSDNED
modifications: left off: His6 (…), N-terminal, kept | two lysines for solubility, C-terminal, kept
B2: S199ES202E: HP1a-CSD phosphorylation mimic, S199E and S202E double mutant (protein)
chain: B1 chain with S69E, A70W, S72E
modifications: left off: His6 (…), N-terminal, kept | two lysines for solubility, C-terminal, kept

System: HP1a (homodimerization)
Experiment: Equilibrium analytical ultracentrifugation, HP1a self-association
Conditions: equilibrium AUC

Molecule | weakening of the dimerization (dissociation) constant relative to wild-type CSD
B1 | two-fold weakening
B2 | 6 fold
